T1: MBP-IDD4-DD (phospho-mimic, truncated) (Arabidopsis thaliana, UniProt Q8GYC1 20-219, S73D;T130D)
T1 sequence: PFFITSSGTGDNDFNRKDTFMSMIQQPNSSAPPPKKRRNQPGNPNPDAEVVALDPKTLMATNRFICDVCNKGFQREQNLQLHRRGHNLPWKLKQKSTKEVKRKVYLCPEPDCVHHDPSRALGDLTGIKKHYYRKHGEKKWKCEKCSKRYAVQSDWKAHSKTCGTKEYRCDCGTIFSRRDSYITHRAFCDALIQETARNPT

B1: SAGT1 promoter ID1 probe (395s/395as) (dsDNA)
DNA 1: ACATGGTAGACAAAATAATGAAGCCAAAATTAATA
DNA 2: TATTAATTTTGGCTTCATTATTTTGTCTACCATGT
B2: SAGT1 promoter ID1 competitor, unlabeled (spe) (dsDNA)
DNA 1: ACATGGTAGACAAAATAATGAAGCCAAAATTAATA
DNA 2: TATTAATTTTGGCTTCATTATTTTGTCTACCATGT

What was measured:
[1] = molecular target: T1, MBP-IDD4-DD (phospho-mimic, truncated); test: EMSA; LightShift Chemiluminescent EMSA kit instructions; 20 fmol biotinylated DNA, 1 ug protein; buffer, salt, pH and temperature not stated; settings: protein: recombinant; tags: MBP; label: 3' biotin; blunt
[2] = molecular target: T1, MBP-IDD4-DD (phospho-mimic, truncated); test: competition; unlabeled competitor up to 0.5 uM (100x excess) against N1; LightShift Chemiluminescent EMSA kit instructions; 20 fmol biotinylated DNA, 1 ug protein; buffer, salt, pH and temperature not stated; settings: protein: recombinant; tags: MBP; blunt

Row | Binder | binding result [1] | binding result [2]
1 | B1 | binds | 
2 | B2 |  | binds
